From US20130058952A1 (UNIVERSIT T DUISBERG ESSEN, published 2013)

How the values were obtained:
[1] = biological target: T1, glycoprotein B (gB) of HSV-1 strain F on infected Vero cells (Herpes simplex virus type 1, strain F, UniProt P06436 30-903); assay: flow cytometry, equilibrium binding to gB on HSV-1 F infected Vero cells, KD from nonlinear regression fit
T1 construct: whole, on cells; also called HSV-1 F; Wild-type strain F

[2] = biological target: T1, glycoprotein B (gB) of HSV-1 strain F …; assay: cell-based or functional assay
[3] = biological target: T1, glycoprotein B (gB) of HSV-1 strain F …; assay: flow cytometry on HSV-infected Vero cells (FIG. 5)
[4] = biological target: T1, glycoprotein B (gB) of HSV-1 strain F …; assay: flow cytometry on HSV-1 F infected Vero cells
[5] = biological target: T2, glycoprotein B (gB) of HSV-2 strain G on infected Vero cells (Herpes simplex virus type 2, strain G); assay: flow cytometry on HSV-2 G infected Vero cells
T2 construct: whole, on cells; also called HSV-2 G

[6] = biological target: T2, glycoprotein B (gB) of HSV-2 strain G …; assay: flow cytometry, equilibrium binding curves on HSV-2 G infected Vero cells
[7] = biological target: designed 12-mer peptide PFYGYRE-G-FEDF; assay: cellulose-bound peptides probed with MAb 2c, chemiluminescence
[8] = biological target: T3, duotope 179YSQFMG184-βA-300FYGYRE305; assay: peptide and duotope microarray on glass slides, mAb 2c, fluorescence laser scan, signal intensity (LU)
T3 construct: also called YSQFMG-βA-FYGYRE

[9] = biological target: T4, duotope 186FED188-βA-βA-300FYGYRE305; assay: as above
T4 construct: also called FED-βA-βA-FYGYRE

[10] = biological target: T5, truncated HSV-1 glycoprotein B gB(436-642) (Herpes simplex virus type 1, strain 17+, UniProt P10211 436-642); assay: indirect immunofluorescence on transfected COS-1 cells
T5 construct: range 436-642

[11] = biological target: T6, truncated HSV-1 glycoprotein B gB(1-223) (Herpes simplex virus type 1, strain 17+, UniProt P10211 31-223); assay: as above
T6 construct: range 31-223

[12] = biological target: T7, truncated HSV-1 glycoprotein B gB(1-130) (Herpes simplex virus type 1, strain 17+, UniProt P10211 31-130); assay: as above
T7 construct: range 31-130

[13] = biological target: T1, glycoprotein B (gB) of HSV-1 strain F …; assay: flow cytometry competition on HSV-1 infected Vero cells against 100 nM mAb 2c
[14] = biological target: T1, glycoprotein B (gB) of HSV-1 strain F …; assay: cell-based or functional assay; remark: listed apart in the source

Row | Binder | Kd [1] | concentration [nM] required for 50% neutralization of 100 TCID50 [2] | concentration [nM] required for 100% neutralization of 100 TCID50 [2] | EC50 (read off the curve) [4] | further results
1 | humanized mAb h2c-V2 (antibody, V domains shown, also called hu2c-V2) VH: QVTLKESGPALVKPTQTLTLTCTFSGFSLSTSGMSVGWIRQPPGKALEWLAHIWWNNDKYYKPALKSRLTISKDTSKKQVVLTMTNMDPVDTATYYCARIYYGYRPYAMDYWGQGTLVTVSS VL: DIVMTQTPLSLPVTPGEPASISCRSSQSIVHSNGNTYLEWYLQKPGQSPQLLIYKVSNRFSGVPDRFSGSGSGTDFTLKISRVEAEDVGVYYCFQGSHVPWSFGQGTKVEIKR | 21.4 nM | 5.1 nM | 15.6 nM | ~20 nM | fold lower affinity in comparison to mAb 2c [3]: 2 fold
2 | 2c-Fab (Fab, V domains shown, also called Fab-fragment of mAb 2c; monovalent 2c-Fab fragment) VH: QVTLKESGPGILLPSQTLSLTCSFSGFSLSTSGMSVGWIRQPSGKGLEWLGHIWWNNDKYYKPALKSRLTISKDTSNKQVFLKIASVVTADTATYYCARIYYGYRPYAMDYWGQGTSVTVSS VL: DVLMTQTPLSLPVSLGDQASISCRSSQSIVHSNGNTYLEWYLQKPGQSPKLLIYKVSNRFSGVPDRFSGSGSGTDFTLKISRVEAEDLGVYYCFQGSHVPWSFGGGTKLEIKR | – | – | – | – | EC50 (read off the curve) [5]: ~20 nM; Kd [6]: 17.7 nM
3 | 2c-F(ab′)2 (other, also called F(ab′)-2-fragment; F(ab)2-fragment of mAb 2c) VH: QVTLKESGPGILLPSQTLSLTCSFSGFSLSTSGMSVGWIRQPSGKGLEWLGHIWWNNDKYYKPALKSRLTISKDTSNKQVFLKIASVVTADTATYYCARIYYGYRPYAMDYWGQGTSVTVSS VL: DVLMTQTPLSLPVSLGDQASISCRSSQSIVHSNGNTYLEWYLQKPGQSPKLLIYKVSNRFSGVPDRFSGSGSGTDFTLKISRVEAEDLGVYYCFQGSHVPWSFGGGTKLEIKR | – | – | – | – | EC50 (read off the curve) [5]: ~8 nM; Kd [6]: 8.8 nM
4 | murine monoclonal antibody (mAb) 2c (antibody, V domains shown, also called 2c IgG; 2c-IgG) VH: QVTLKESGPGILLPSQTLSLTCSFSGFSLSTSGMSVGWIRQPSGKGLEWLGHIWWNNDKYYKPALKSRLTISKDTSNKQVFLKIASVVTADTATYYCARIYYGYRPYAMDYWGQGTSVTVSS VL: DVLMTQTPLSLPVSLGDQASISCRSSQSIVHSNGNTYLEWYLQKPGQSPKLLIYKVSNRFSGVPDRFSGSGSGTDFTLKISRVEAEDLGVYYCFQGSHVPWSFGGGTKLEIKR | – | – | – | – | binding result [7]: binds; binding result [8]: binds; binding result [9]: binds; binding result [10]: no binding; binding result [11]: no binding; binding result [12]: no binding
5 | humanized mAb h2c-V3 (antibody, V domains shown, also called hu2c-V3) VH: QVTLKESGPALVKPTQTLTLTCTFSGFSLSTSGMSVGWIRQPPGKALEWLAHIWWNNDKYYKPALKSRLTISKDTSKKQVFLTMTNMDPVDTATYYCARIYYGYRPYAMDYWGQGTLVTVSS VL: DIVMTQTPLSLPVTPGEPASISCRSSQSIVHSNGNTYLEWYLQKPGQSPQLLIYKVSNRFSGVPDRFSGSGSGTDFTLKISRVEAEDVGVYYCFQGSHVPWSFGQGTKVEIKR | 11.4 nM | 3.3 nM | 7.8 nM | ~10 nM | IC50 (read off the curve) [13]: ~100 nM
6 | humanized mAb h2c-V4 (antibody, V domains shown, also called hu2c-V4) VH: QVTLKESGPALVKPTQTLTLTCTFSGFSLSTSGMSVGWIRQPPGKALEWLAHIWWNNDKYYKPALKSRLTISKDTSKKQVFLTMTNMDPVDTATYYCARIYYGYRPYAMDYWGQGTLVTVSS VL: DVVMTQTPLSLPVTPGEPASISCRSSQSIVHSNGNTYLEWYLQKPGQSPQLLIYKVSNRFSGVPDRFSGSGSGTDFTLKISRVEAEDVGVYYCFQGSHVPWSFGQGTKVEIKR | 13.7 nM | 3.7 nM | 7.8 nM | ~10 nM | –
7 | humanized mAb h2c-V1 (antibody, V domains shown, also called hu2c-V1; mAb hu2c-V1) VH: QVTLKESGPALVKPTQTLTLTCTFSGFSLSTSGMSVGWIRQPPGKALEWLAHIWWNNDKYYKPALKSRLTISKDTSKNQVVLTMTNMDPVDTATYYCARIYYGYRPYAMDYWGQGTLVTVSS VL: DIVMTQTPLSLPVTPGEPASISCRSSQSIVHSNGNTYLEWYLQKPGQSPQLLIYKVSNRFSGVPDRFSGSGSGTDFTLKISRVEAEDVGVYYCFQGSHVPWSFGQGTKVEIKR | 12.8 nM | 3.7 nM | 7.8 nM | ~10 nM | inhibition of HSV-1 F cell-to-cell spread in Vero cell monolayers [14]: 500 nM
